Experimental data taken from PMC3526290.

Tests used:
[1] = target: Cac2 B domain (Saccharomyces cerevisiae) (UniProt Q04199); settings: cited from earlier work
[2] = target: Asf1 labeled with Alexa Fluor 532 (*Asf1), full-length (budding yeast) (UniProt P32447); assay: fluorescence polarisation; fluorescence anisotropy; 10 nM *Asf1 (alone or pre-bound to 20 nM H3/H4) or 100 nM *Asf1^1-169, Cac2 or CAF-1 titrated; 20 mM HEPES, 150 mM NaCl, pH 7.4, 20°C
[3] = target: Asf1 labeled with Alexa Fluor 532 (*Asf1), full-length (budding yeast) (UniProt P32447); assay: native gel or EMSA; labelled protein (*Asf1, 0.5 µM in Figure 1b, or H3/H4*) with Cac2 or CAF-1 titrated or at 20 µM; 10 mM Tris, 1 mM DTT, pH 8.0, 30 min on ice; 0.2x TBE 59:1 native gel on ice; fraction bound from band densities

Chain of UniProt Q04199 (Q04199 449-468): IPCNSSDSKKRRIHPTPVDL

| Substance | Kd [1] [nM] | Kd [2] [nM] | Kd [3] [nM] |
| --- | --- | --- | --- |
| Asf1 (from UniProt P32447) | 1500 |  |  |
| Chromatin Assembly Factor 1 (CAF-1) complex: Cac1, Cac2, Cac3 (from UniProt Q12495 1-606; Q04199 1-468; P13712 1-422) |  | 380 | 280 |
